The values below are quoted from earlier work in patent US8026218B2, “Bifunctional analgesic compounds for opioid receptor agonists and neurokinin-1 receptor antagonists” (The University of Arizona, priority 2006, dated 2011).

Data set [1] deals with MOR (Homo sapiens, UniProt P35372). The note with it: previous studies; read-out: Affinity (Ki in nM), MOR; cited from earlier work.
In data set [2] the target is rNK1 (Rattus norvegicus, UniProt P14600). The note with it: previous studies; read-out: Affinity (Ki in nM), rNK1; cited from earlier work.
rNK1, sequence (P14600 whole entry): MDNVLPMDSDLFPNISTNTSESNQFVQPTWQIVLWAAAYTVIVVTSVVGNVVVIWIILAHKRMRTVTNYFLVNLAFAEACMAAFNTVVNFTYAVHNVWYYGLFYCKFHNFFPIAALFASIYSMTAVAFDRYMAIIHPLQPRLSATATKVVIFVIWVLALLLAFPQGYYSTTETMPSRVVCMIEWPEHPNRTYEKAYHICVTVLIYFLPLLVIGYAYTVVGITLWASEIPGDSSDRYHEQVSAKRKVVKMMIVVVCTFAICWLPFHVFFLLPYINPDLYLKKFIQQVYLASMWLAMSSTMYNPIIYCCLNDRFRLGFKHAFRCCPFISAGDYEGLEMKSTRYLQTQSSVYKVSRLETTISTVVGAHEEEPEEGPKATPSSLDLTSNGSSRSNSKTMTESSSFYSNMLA

MOR, sequence (P35372 whole entry): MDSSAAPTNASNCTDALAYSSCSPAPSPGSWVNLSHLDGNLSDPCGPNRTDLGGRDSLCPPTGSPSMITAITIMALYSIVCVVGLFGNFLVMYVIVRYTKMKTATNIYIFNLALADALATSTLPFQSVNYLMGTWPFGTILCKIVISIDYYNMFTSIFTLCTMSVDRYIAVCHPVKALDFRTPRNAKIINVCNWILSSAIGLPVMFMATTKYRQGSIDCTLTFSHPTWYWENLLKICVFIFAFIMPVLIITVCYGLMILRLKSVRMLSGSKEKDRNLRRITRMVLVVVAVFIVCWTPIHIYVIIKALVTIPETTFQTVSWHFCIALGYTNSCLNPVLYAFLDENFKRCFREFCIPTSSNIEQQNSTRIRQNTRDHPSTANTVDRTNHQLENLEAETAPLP

Turning to “HTyrProPhePheProLeuMetNH2 (H-YPFFPLM-NH2) [ESP6]”, the Ki was 92 nM in data set [1] and 305 nM in data set [2].
As for HTyrDAlaGlyPheNHNHTrpCbz [AA501], the results for the Ki in data set [1] and in data set [2] were 80 nM and 5000 nM, respectively.

In general, Ki refers to a dissociation constant, usually derived from enzyme kinetics or from competition with a known ligand.
